Measured values reported in PMC4091826 (Molecular Biology of the Cell, 2014).
No end group written: not given here.

T1: fluorescein-labeled P5 peptide (also: fluorescein label, position not given here)
T1 peptide: CALLLSAPRR


system: yeast cells; assay: Growth phenotype; type: cell-based, S. cerevisiae; settings: minimal medium or 5-FOA medium, serial dilutions

Molecule | growth phenotype, in words
S7-N508T: suppressor S7-N508T subcloned into the E467A-D411R backbone (protein, left off: His6, end not stated, state not stated) QSTKVQGSVIGIDLGTTNSAVAIMEGKVPKIIENAEGSRTTPSVVAFTKEGERLVGIPAKRQAVVNPENTLFATKRLIGRRFEDAEVQRDIKQVPYKIVKHSNGDAWVEARGQTYSPAQIGGFVLNKMKETAEAYLGKPVKNAVVTVPAYFNDSQRQATKDAGQIVGLNVLRVVNEPTAAALAYGLEKSDSKVVAVFDLGGGTFDISILDIDNGVFEVKSTNGDTHLGGEDFDIYLLREIVSRFKTETGIDLENDRMAIQRIREAAEKAKIELSSTVSTEINLPFITADASGPKHINMKFSRAQFETLTAPLVKRTVDPVKKALKDAGLSTSDISEVLLVGGMSRMPKVVETVKSLFGKDPSKAVNPDEAVAIGAAVQGAVLSGEVTDVLLLDVTPLSLGIETLGGVFTRLIPRNTTIPTKKSQIFSTAAAGQTSVEIRVFQGARELVRDNKLIGNFTLAGIPPAPKGVPQIEVTFDIDADGIITVSARDKATNKDSSITVAGSSGLSENEIEQMVNDAEKFKSQDEARKQAIETANKADQLANDTENSLKEFEGKVDKAEAQKVRDQITSLKELVARVQGGEEVNAEELKTKTEELQTSSMKLFEQLYKNDSNNNNNNNGNNAESGETKQ | significant growth rescue of the E467A-D411R–associated lethality at different temperatures on 5-FOA medium
S1-D519E: suppressor S1-D519E subcloned into the E467A-D411R backbone (protein, left off: His6, end not stated, state not stated) QSTKVQGSVIGIDLGTTNSAVAIMEGKVPKIIENAEGSRTTPSVVAFTKEGERLVGIPAKRQAVVNPENTLFATKRLIGRRFEDAEVQRDIKQVPYKIVKHSNGDAWVEARGQTYSPAQIGGFVLNKMKETAEAYLGKPVKNAVVTVPAYFNDSQRQATKDAGQIVGLNVLRVVNEPTAAALAYGLEKSDSKVVAVFDLGGGTFDISILDIDNGVFEVKSTNGDTHLGGEDFDIYLLREIVSRFKTETGIDLENDRMAIQRIREAAEKAKIELSSTVSTEINLPFITADASGPKHINMKFSRAQFETLTAPLVKRTVDPVKKALKDAGLSTSDISEVLLVGGMSRMPKVVETVKSLFGKDPSKAVNPDEAVAIGAAVQGAVLSGEVTDVLLLDVTPLSLGIETLGGVFTRLIPRNTTIPTKKSQIFSTAAAGQTSVEIRVFQGARELVRDNKLIGNFTLAGIPPAPKGVPQIEVTFDIDADGIINVSARDKATNKESSITVAGSSGLSENEIEQMVNDAEKFKSQDEARKQAIETANKADQLANDTENSLKEFEGKVDKAEAQKVRDQITSLKELVARVQGGEEVNAEELKTKTEELQTSSMKLFEQLYKNDSNNNNNNNGNNAESGETKQ | significant growth rescue of the E467A-D411R–associated lethality at different temperatures on 5-FOA medium
S2-V524I: suppressor S2-V524I subcloned into the E467A-D411R backbone (protein, left off: His6, end not stated, state not stated) QSTKVQGSVIGIDLGTTNSAVAIMEGKVPKIIENAEGSRTTPSVVAFTKEGERLVGIPAKRQAVVNPENTLFATKRLIGRRFEDAEVQRDIKQVPYKIVKHSNGDAWVEARGQTYSPAQIGGFVLNKMKETAEAYLGKPVKNAVVTVPAYFNDSQRQATKDAGQIVGLNVLRVVNEPTAAALAYGLEKSDSKVVAVFDLGGGTFDISILDIDNGVFEVKSTNGDTHLGGEDFDIYLLREIVSRFKTETGIDLENDRMAIQRIREAAEKAKIELSSTVSTEINLPFITADASGPKHINMKFSRAQFETLTAPLVKRTVDPVKKALKDAGLSTSDISEVLLVGGMSRMPKVVETVKSLFGKDPSKAVNPDEAVAIGAAVQGAVLSGEVTDVLLLDVTPLSLGIETLGGVFTRLIPRNTTIPTKKSQIFSTAAAGQTSVEIRVFQGARELVRDNKLIGNFTLAGIPPAPKGVPQIEVTFDIDADGIINVSARDKATNKDSSITIAGSSGLSENEIEQMVNDAEKFKSQDEARKQAIETANKADQLANDTENSLKEFEGKVDKAEAQKVRDQITSLKELVARVQGGEEVNAEELKTKTEELQTSSMKLFEQLYKNDSNNNNNNNGNNAESGETKQ | significant growth rescue of the E467A-D411R–associated lethality at different temperatures on 5-FOA medium
E467A-D416R (protein, UniProt P0CS90 24-654, looked up, variant E467A D416R) Import motor subunit, …: QSTKVQGSVIGIDLGTTNSAVAIMEGKVPKIIENAEGSRTTPSVVAFTKEGERLVGIPAKRQAVVNPENTLFATKRLIGRRFEDAEVQRDIKQVPYKIVKHSNGDAWVEARGQTYSPAQIGGFVLNKMKETAEAYLGKPVKNAVVTVPAYFNDSQRQATKDAGQIVGLNVLRVVNEPTAAALAYGLEKSDSKVVAVFDLGGGTFDISILDIDNGVFEVKSTNGDTHLGGEDFDIYLLREIVSRFKTETGIDLENDRMAIQRIREAAEKAKIELSSTVSTEINLPFITADASGPKHINMKFSRAQFETLTAPLVKRTVDPVKKALKDAGLSTSDISEVLLVGGMSRMPKVVETVKSLFGKDPSKAVNPDEAVAIGAAVQGAVLSGEVTDVLLLRVTPLSLGIETLGGVFTRLIPRNTTIPTKKSQIFSTAAAGQTSVEIRVFQGARELVRDNKLIGNFTLAGIPPAPKGVPQIEVTFDIDADGIINVSARDKATNKDSSITVAGSSGLSENEIEQMVNDAEKFKSQDEARKQAIETANKADQLANDTENSLKEFEGKVDKAEAQKVRDQITSLKELVARVQGGEEVNAEELKTKTEELQTSSMKLFEQLYKNDSNNNNNNNGNNAESGETKQ | semidominant phenotype

Molecular target: T1, fluorescein-labeled P5 peptide
Assay: fluorescence polarisation
Settings: not given

Molecule | substrate release upon ATP binding [%]
Ssc1 E467A suppressor S201 (E467A, D519E), purified (natural protein, S. cerevisiae, UniProt P0CS90 24-654, looked up) QSTKVQGSVIGIDLGTTNSAVAIMEGKVPKIIENAEGSRTTPSVVAFTKEGERLVGIPAKRQAVVNPENTLFATKRLIGRRFEDAEVQRDIKQVPYKIVKHSNGDAWVEARGQTYSPAQIGGFVLNKMKETAEAYLGKPVKNAVVTVPAYFNDSQRQATKDAGQIVGLNVLRVVNEPTAAALAYGLEKSDSKVVAVFDLGGGTFDISILDIDNGVFEVKSTNGDTHLGGEDFDIYLLREIVSRFKTETGIDLENDRMAIQRIREAAEKAKIELSSTVSTEINLPFITADASGPKHINMKFSRAQFETLTAPLVKRTVDPVKKALKDAGLSTSDISEVLLVGGMSRMPKVVETVKSLFGKDPSKAVNPDEAVAIGAAVQGAVLSGEVTDVLLLDVTPLSLGIETLGGVFTRLIPRNTTIPTKKSQIFSTAAAGQTSVEIRVFQGARELVRDNKLIGNFTLAGIPPAPKGVPQIEVTFDIDADGIINVSARDKATNKESSITVAGSSGLSENEIEQMVNDAEKFKSQDEARKQAIETANKADQLANDTENSLKEFEGKVDKAEAQKVRDQITSLKELVARVQGGEEVNAEELKTKTEELQTSSMKLFEQLYKNDSNNNNNNNGNNAESGETKQ | > 50
Ssc1 E467A suppressor S202 (E467A, V524I), purified (natural protein, S. cerevisiae, UniProt P0CS90 24-654, looked up) QSTKVQGSVIGIDLGTTNSAVAIMEGKVPKIIENAEGSRTTPSVVAFTKEGERLVGIPAKRQAVVNPENTLFATKRLIGRRFEDAEVQRDIKQVPYKIVKHSNGDAWVEARGQTYSPAQIGGFVLNKMKETAEAYLGKPVKNAVVTVPAYFNDSQRQATKDAGQIVGLNVLRVVNEPTAAALAYGLEKSDSKVVAVFDLGGGTFDISILDIDNGVFEVKSTNGDTHLGGEDFDIYLLREIVSRFKTETGIDLENDRMAIQRIREAAEKAKIELSSTVSTEINLPFITADASGPKHINMKFSRAQFETLTAPLVKRTVDPVKKALKDAGLSTSDISEVLLVGGMSRMPKVVETVKSLFGKDPSKAVNPDEAVAIGAAVQGAVLSGEVTDVLLLDVTPLSLGIETLGGVFTRLIPRNTTIPTKKSQIFSTAAAGQTSVEIRVFQGARELVRDNKLIGNFTLAGIPPAPKGVPQIEVTFDIDADGIINVSARDKATNKDSSITIAGSSGLSENEIEQMVNDAEKFKSQDEARKQAIETANKADQLANDTENSLKEFEGKVDKAEAQKVRDQITSLKELVARVQGGEEVNAEELKTKTEELQTSSMKLFEQLYKNDSNNNNNNNGNNAESGETKQ | > 50
Ssc1 E467A suppressor S204 (E467A, D519N), purified (natural protein, S. cerevisiae, UniProt P0CS90 24-654, looked up) QSTKVQGSVIGIDLGTTNSAVAIMEGKVPKIIENAEGSRTTPSVVAFTKEGERLVGIPAKRQAVVNPENTLFATKRLIGRRFEDAEVQRDIKQVPYKIVKHSNGDAWVEARGQTYSPAQIGGFVLNKMKETAEAYLGKPVKNAVVTVPAYFNDSQRQATKDAGQIVGLNVLRVVNEPTAAALAYGLEKSDSKVVAVFDLGGGTFDISILDIDNGVFEVKSTNGDTHLGGEDFDIYLLREIVSRFKTETGIDLENDRMAIQRIREAAEKAKIELSSTVSTEINLPFITADASGPKHINMKFSRAQFETLTAPLVKRTVDPVKKALKDAGLSTSDISEVLLVGGMSRMPKVVETVKSLFGKDPSKAVNPDEAVAIGAAVQGAVLSGEVTDVLLLDVTPLSLGIETLGGVFTRLIPRNTTIPTKKSQIFSTAAAGQTSVEIRVFQGARELVRDNKLIGNFTLAGIPPAPKGVPQIEVTFDIDADGIINVSARDKATNKNSSITVAGSSGLSENEIEQMVNDAEKFKSQDEARKQAIETANKADQLANDTENSLKEFEGKVDKAEAQKVRDQITSLKELVARVQGGEEVNAEELKTKTEELQTSSMKLFEQLYKNDSNNNNNNNGNNAESGETKQ | > 50
Ssc1 E467A suppressor S203 (E467A, D519Y), purified (natural protein, S. cerevisiae, UniProt P0CS90 24-654, looked up) QSTKVQGSVIGIDLGTTNSAVAIMEGKVPKIIENAEGSRTTPSVVAFTKEGERLVGIPAKRQAVVNPENTLFATKRLIGRRFEDAEVQRDIKQVPYKIVKHSNGDAWVEARGQTYSPAQIGGFVLNKMKETAEAYLGKPVKNAVVTVPAYFNDSQRQATKDAGQIVGLNVLRVVNEPTAAALAYGLEKSDSKVVAVFDLGGGTFDISILDIDNGVFEVKSTNGDTHLGGEDFDIYLLREIVSRFKTETGIDLENDRMAIQRIREAAEKAKIELSSTVSTEINLPFITADASGPKHINMKFSRAQFETLTAPLVKRTVDPVKKALKDAGLSTSDISEVLLVGGMSRMPKVVETVKSLFGKDPSKAVNPDEAVAIGAAVQGAVLSGEVTDVLLLDVTPLSLGIETLGGVFTRLIPRNTTIPTKKSQIFSTAAAGQTSVEIRVFQGARELVRDNKLIGNFTLAGIPPAPKGVPQIEVTFDIDADGIINVSARDKATNKYSSITVAGSSGLSENEIEQMVNDAEKFKSQDEARKQAIETANKADQLANDTENSLKEFEGKVDKAEAQKVRDQITSLKELVARVQGGEEVNAEELKTKTEELQTSSMKLFEQLYKNDSNNNNNNNGNNAESGETKQ | > 50
